In patent US20190233495A1 (Sanofi, published 2019):
Non-standard residues stand in square brackets, D forms with d. 1Nal = N[C@@H](Cc1cccc2ccccc12)C(=O)O; Nle = CCCC[C@H](N)C(=O)O; Aib = CC(C)(N)C(=O)O

T1: RXFP1 receptor (UniProt Q9HBX9 1-757, limits assumed)
T1 sequence (looked up): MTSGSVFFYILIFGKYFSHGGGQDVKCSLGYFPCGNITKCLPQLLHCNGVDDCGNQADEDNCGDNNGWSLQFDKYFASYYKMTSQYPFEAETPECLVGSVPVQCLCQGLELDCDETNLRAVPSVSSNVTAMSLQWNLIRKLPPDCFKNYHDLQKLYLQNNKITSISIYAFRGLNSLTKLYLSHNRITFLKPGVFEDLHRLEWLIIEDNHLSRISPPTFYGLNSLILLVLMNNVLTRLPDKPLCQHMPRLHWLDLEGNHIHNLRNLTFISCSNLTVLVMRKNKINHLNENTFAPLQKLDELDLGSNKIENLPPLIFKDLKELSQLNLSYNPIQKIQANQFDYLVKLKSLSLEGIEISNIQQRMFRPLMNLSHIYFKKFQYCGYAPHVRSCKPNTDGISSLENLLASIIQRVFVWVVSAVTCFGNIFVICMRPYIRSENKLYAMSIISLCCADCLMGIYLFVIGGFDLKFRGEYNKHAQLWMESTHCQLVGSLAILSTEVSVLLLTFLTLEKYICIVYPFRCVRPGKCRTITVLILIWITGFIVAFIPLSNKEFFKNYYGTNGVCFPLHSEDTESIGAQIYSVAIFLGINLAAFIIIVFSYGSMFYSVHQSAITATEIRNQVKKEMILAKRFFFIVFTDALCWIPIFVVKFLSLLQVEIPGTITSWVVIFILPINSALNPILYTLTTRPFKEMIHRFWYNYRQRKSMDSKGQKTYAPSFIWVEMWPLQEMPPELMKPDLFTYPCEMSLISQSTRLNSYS


These binders were tested against T1, RXFP1 receptor (assay: cell-based or functional assay).

Row | Binder | cAMP assay in OVCAR 5 cells EC50 [nM] | cAMP assay in OVCAR 5 cells Emax [%]
1 | Ac-LEGREKVRAQI[Aib][Aib]EG[Nle]STWSKRKK-NH2 (SMILES CCCC[C@H](NC(=O)CNC(=O)[C@H](CCC(=O)O)NC(=O)C(C)(C)NC(=O)C(C)(C)NC(=O)[C@@H](NC(=O)[C@H](CCC(N)=O)NC(=O)[C@H](C)NC(=O)[C@H](CCCNC(=N)N)NC(=O)[C@@H](NC(=O)[C@H](CCCCN)NC(=O)[C@H](CCC(=O)O)NC(=O)[C@H](CCCNC(=N)N)NC(=O)CNC(=O)[C@H](CCC(=O)O)NC(=O)[C@H](CC(C)C)NC(C)=O)C(C)C)[C@@H](C)CC)C(=O)N[C@@H](CO)C(=O)N[C@H](C(=O)N[C@@H](Cc1c[nH]c2ccccc12)C(=O)N[C@@H](CO)C(=O)N[C@@H](CCCCN)C(=O)N[C@@H](CCCNC(=N)N)C(=O)N[C@@H](CCCCN)C(=O)N[C@@H](CCCCN)C(N)=O)[C@@H](C)O) [SEQ ID NO: 13] | 19.2 | 97
2 | Ac-LEGREKVRAQI[Aib][Aib]EG[Nle]SK[1Nal]SKRKK-NH2 (SMILES CCCC[C@H](NC(=O)CNC(=O)[C@H](CCC(=O)O)NC(=O)C(C)(C)NC(=O)C(C)(C)NC(=O)[C@@H](NC(=O)[C@H](CCC(N)=O)NC(=O)[C@H](C)NC(=O)[C@H](CCCNC(=N)N)NC(=O)[C@@H](NC(=O)[C@H](CCCCN)NC(=O)[C@H](CCC(=O)O)NC(=O)[C@H](CCCNC(=N)N)NC(=O)CNC(=O)[C@H](CCC(=O)O)NC(=O)[C@H](CC(C)C)NC(C)=O)C(C)C)[C@@H](C)CC)C(=O)N[C@@H](CO)C(=O)N[C@@H](CCCCN)C(=O)N[C@@H](Cc1cccc2ccccc12)C(=O)N[C@@H](CO)C(=O)N[C@@H](CCCCN)C(=O)N[C@@H](CCCNC(=N)N)C(=O)N[C@@H](CCCCN)C(=O)N[C@@H](CCCCN)C(N)=O) [SEQ ID NO: 14] | 32.8 | 106
3 | H-[Aib]EGREKVRAQI[Aib][Aib]EGMSKWSKRKK-NH2 (SMILES CC[C@H](C)[C@H](NC(=O)[C@H](CCC(N)=O)NC(=O)[C@H](C)NC(=O)[C@H](CCCNC(=N)N)NC(=O)[C@@H](NC(=O)[C@H](CCCCN)NC(=O)[C@H](CCC(=O)O)NC(=O)[C@H](CCCNC(=N)N)NC(=O)CNC(=O)[C@H](CCC(=O)O)NC(=O)C(C)(C)N)C(C)C)C(=O)NC(C)(C)C(=O)NC(C)(C)C(=O)N[C@@H](CCC(=O)O)C(=O)NCC(=O)N[C@@H](CCSC)C(=O)N[C@@H](CO)C(=O)N[C@@H](CCCCN)C(=O)N[C@@H](Cc1c[nH]c2ccccc12)C(=O)N[C@@H](CO)C(=O)N[C@@H](CCCCN)C(=O)N[C@@H](CCCNC(=N)N)C(=O)N[C@@H](CCCCN)C(=O)N[C@@H](CCCCN)C(N)=O) [SEQ ID NO: 12] | 28.2 | 99
4 | Ac-LEGREKVRAQI[Aib][Aib]EGMSKWSKRKK-NH2 (SMILES CC[C@H](C)[C@H](NC(=O)[C@H](CCC(N)=O)NC(=O)[C@H](C)NC(=O)[C@H](CCCNC(=N)N)NC(=O)[C@@H](NC(=O)[C@H](CCCCN)NC(=O)[C@H](CCC(=O)O)NC(=O)[C@H](CCCNC(=N)N)NC(=O)CNC(=O)[C@H](CCC(=O)O)NC(=O)[C@H](CC(C)C)NC(C)=O)C(C)C)C(=O)NC(C)(C)C(=O)NC(C)(C)C(=O)N[C@@H](CCC(=O)O)C(=O)NCC(=O)N[C@@H](CCSC)C(=O)N[C@@H](CO)C(=O)N[C@@H](CCCCN)C(=O)N[C@@H](Cc1c[nH]c2ccccc12)C(=O)N[C@@H](CO)C(=O)N[C@@H](CCCCN)C(=O)N[C@@H](CCCNC(=N)N)C(=O)N[C@@H](CCCCN)C(=O)N[C@@H](CCCCN)C(N)=O) [SEQ ID NO: 2] | 14.4 | 99

More lines, now with the values ahead:

Row | cAMP assay in OVCAR 5 cells EC50 [nM] | cAMP assay in OVCAR 5 cells Emax [%] | Binder
5 | 52.1 | 104 | Ac-LEGREKVRAAI[Aib][Aib]EGMSKWS[Aib]RK-NH2 (SMILES CC[C@H](C)[C@H](NC(=O)[C@H](C)NC(=O)[C@H](C)NC(=O)[C@H](CCCNC(=N)N)NC(=O)[C@@H](NC(=O)[C@H](CCCCN)NC(=O)[C@H](CCC(=O)O)NC(=O)[C@H](CCCNC(=N)N)NC(=O)CNC(=O)[C@H](CCC(=O)O)NC(=O)[C@H](CC(C)C)NC(C)=O)C(C)C)C(=O)NC(C)(C)C(=O)NC(C)(C)C(=O)N[C@@H](CCC(=O)O)C(=O)NCC(=O)N[C@@H](CCSC)C(=O)N[C@@H](CO)C(=O)N[C@@H](CCCCN)C(=O)N[C@@H](Cc1c[nH]c2ccccc12)C(=O)N[C@@H](CO)C(=O)NC(C)(C)C(=O)N[C@@H](CCCNC(=N)N)C(=O)N[C@@H](CCCCN)C(N)=O) [SEQ ID NO: 18]
6 | 24.4 | 104 | Ac-LEGREKVRAQI[Aib][Aib]EG[Nle]ST[1Nal]SKRKK-NH2 (SMILES CCCC[C@H](NC(=O)CNC(=O)[C@H](CCC(=O)O)NC(=O)C(C)(C)NC(=O)C(C)(C)NC(=O)[C@@H](NC(=O)[C@H](CCC(N)=O)NC(=O)[C@H](C)NC(=O)[C@H](CCCNC(=N)N)NC(=O)[C@@H](NC(=O)[C@H](CCCCN)NC(=O)[C@H](CCC(=O)O)NC(=O)[C@H](CCCNC(=N)N)NC(=O)CNC(=O)[C@H](CCC(=O)O)NC(=O)[C@H](CC(C)C)NC(C)=O)C(C)C)[C@@H](C)CC)C(=O)N[C@@H](CO)C(=O)N[C@H](C(=O)N[C@@H](Cc1cccc2ccccc12)C(=O)N[C@@H](CO)C(=O)N[C@@H](CCCCN)C(=O)N[C@@H](CCCNC(=N)N)C(=O)N[C@@H](CCCCN)C(=O)N[C@@H](CCCCN)C(N)=O)[C@@H](C)O) [SEQ ID NO: 15]
7 | 11.6 | 90 | Ac-LEGREKVRAAI[Aib][Aib]EG[Nle]STWS[Aib]RKK-NH2 (SMILES CCCC[C@H](NC(=O)CNC(=O)[C@H](CCC(=O)O)NC(=O)C(C)(C)NC(=O)C(C)(C)NC(=O)[C@@H](NC(=O)[C@H](C)NC(=O)[C@H](C)NC(=O)[C@H](CCCNC(=N)N)NC(=O)[C@@H](NC(=O)[C@H](CCCCN)NC(=O)[C@H](CCC(=O)O)NC(=O)[C@H](CCCNC(=N)N)NC(=O)CNC(=O)[C@H](CCC(=O)O)NC(=O)[C@H](CC(C)C)NC(C)=O)C(C)C)[C@@H](C)CC)C(=O)N[C@@H](CO)C(=O)N[C@H](C(=O)N[C@@H](Cc1c[nH]c2ccccc12)C(=O)N[C@@H](CO)C(=O)NC(C)(C)C(=O)N[C@@H](CCCNC(=N)N)C(=O)N[C@@H](CCCCN)C(=O)N[C@@H](CCCCN)C(N)=O)[C@@H](C)O) [SEQ ID NO: 17]
8 | 4.6 | 101 | Ac-LEGREKVRAAI[Aib][Aib]EGMSTWSKRKK-NH2 (SMILES CC[C@H](C)[C@H](NC(=O)[C@H](C)NC(=O)[C@H](C)NC(=O)[C@H](CCCNC(=N)N)NC(=O)[C@@H](NC(=O)[C@H](CCCCN)NC(=O)[C@H](CCC(=O)O)NC(=O)[C@H](CCCNC(=N)N)NC(=O)CNC(=O)[C@H](CCC(=O)O)NC(=O)[C@H](CC(C)C)NC(C)=O)C(C)C)C(=O)NC(C)(C)C(=O)NC(C)(C)C(=O)N[C@@H](CCC(=O)O)C(=O)NCC(=O)N[C@@H](CCSC)C(=O)N[C@@H](CO)C(=O)N[C@H](C(=O)N[C@@H](Cc1c[nH]c2ccccc12)C(=O)N[C@@H](CO)C(=O)N[C@@H](CCCCN)C(=O)N[C@@H](CCCNC(=N)N)C(=O)N[C@@H](CCCCN)C(=O)N[C@@H](CCCCN)C(N)=O)[C@@H](C)O) [SEQ ID NO: 16]
